We go through 22 molecules from patent US20260034230A1 (Regeneron, published 2026).

The labels stand for the following.
B1: 69340 anti-hTfR monoclonal antibody (bivalent IgG1) (antibody, V domains shown)
VH: EVQLVESGGGLVQPGRSLRLSCAASGFTFDDKAMHWVRQVPGKGLEWISGISWNSGTIGYADSVKGRFIISRDNAKNSLYLQMNSLRAEDTALYYCAKDGDTSGWYWYGLDVWGQGTTVTVSS
VL: EIVLTQSPATLSLSPGERATLSCRASQSVSSYLAWYQQKPGQAPRLLIHDVSNRATGIPARFSGSGSGTDFTLTISSLEPEDFVVYYCQQRSDWPITFGQGTRLEIKR
notes: hIgG1/kappa
B2: 12816B anti-hTfR monoclonal antibody (bivalent IgG1) (antibody, V domains shown)
VH: QVQLVESGGGLVKPGGSLRLSCAASGFTFSDYYMNWIRQAPGKGLEWVSYISSSGTTIYYADSVKGRFTISRDNAKKSLYLEMNSLRAEDTAVYYCAREGYGNDYYYYGIDVWGQGTTVTVSS
VL: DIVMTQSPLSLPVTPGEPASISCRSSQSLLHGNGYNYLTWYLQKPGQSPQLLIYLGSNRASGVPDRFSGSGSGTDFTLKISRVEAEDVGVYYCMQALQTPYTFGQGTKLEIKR
notes: hIgG1/kappa
B3: 69261 anti-hTfR monoclonal antibody (bivalent IgG1) (antibody, V domains shown)
VH: B2 VH with D31V, T56S, K77N, E82Q, A97G, G102S, N103G, D104T, Y106S, I110M
VL: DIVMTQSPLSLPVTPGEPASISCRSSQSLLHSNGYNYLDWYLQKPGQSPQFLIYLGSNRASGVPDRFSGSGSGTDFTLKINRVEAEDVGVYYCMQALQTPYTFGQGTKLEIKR
notes: hIgG1/kappa
B4: 12798B anti-hTfR monoclonal antibody (bivalent IgG1) (antibody, V domains shown)
VH: EVQLVESGGDLVQPGRSLRLSCAASGFTFDDYAMHWVRQAPGKGLEWVSGISWNSATRVYADSVKGRFTISRDNAKNFLYLQMNSLRSEDTALYHCAKDMDISLGYYGLDVWGQGTTVTVSS
VL: not shown
notes: hIgG1/kappa; also called H1H12798B; REGN17507
B5: 31863B anti-hTfR monoclonal antibody (bivalent IgG1) (antibody, V domains shown)
VH: EVQLVESGGGLVQPGGSLRLSCAASGFTFNSYAMTWVRQAPGKGLEWVSFIGGSTGNTYYAGSVKGRFTISSDNSKKTLYLQMNSLRAEDTAVYYCAKGGAARRMEYFQHWGQGTLVTVSS
VL: DIQMTQSPSSLSASIGDRVTITCRASQGISNYLAWYQQKPGKVPKLLIYAASTLQSGVPSRFSGSGSGTDFTLTISSLQPEDVATYYCQNHNSVPLTFGGGTKVEIKR
notes: hIgG1/kappa
B6: 69263 anti-hTfR monoclonal antibody (bivalent IgG1) (antibody, V domains shown)
VH: EVQLVESGGGLVQPGRSLRLSCAVSGFTFDDYAMHWVRQAPGKGLEWVSGISWNSGTRGYADSVKGRFTISRDNAKNSLYLQMNSLRGEDTALYYCVKDITISPNYYGMDVWGQGTTVTVSS
VL: B5 VL with I15V, G28D, N31H, L33S, V43L, K45N, T72S, I75T, N90K, H91Y
notes: hIgG1/kappa
B7: 69331 anti-hTfR monoclonal antibody (bivalent IgG1) (antibody, V domains shown)
VH: QVQLVESGGGVVQPGRSLRLSCIASGFTFSVYGIHWVRQAPGKGLEWMAVISHDGNIKHYADSVKGRFTISRDNSKNTLYLQINSLRTEDTAVYYCAKDTWNSLDTFDIWGQGTMVTVSS
VL: B5 VL with M4L, I15V, R24W, N31S, V43A, D70E, V83F, N90Q, H91L, V94Y
notes: hIgG1/kappa
B8: 31874B anti-hTfR monoclonal antibody (bivalent IgG1) (antibody, V domains shown)
VH: EVQLVESGGGLVQPGGSLRLSCAASGFAFSSYAMTWVRQAPGKGLEWVSVISGTGGSTYYADSVKGRFTISRDNSKNTLYLQMNSLRAEDTAVYYCAKGGAARRMEYFQYWGQGTLVTVSS
VL: B5 VL with I15V, K45N, N90K, H91Y, V94A
notes: hIgG1/kappa; also called H1H31874B; REGN17517
B9: 69348 anti-hTfR monoclonal antibody (bivalent IgG1) (antibody, V domains shown)
VH: QVQLVESGGGVVQPGRSLRLSCAASGFTFTTYGMHWVRQAPGKGLEWVAVIWYDGSNKYYGDSVKGRFTISRDNSKNTLYLQMNSLRVDDTAVYYCTRTHGYTRSSDGFDYWGQGTLVTVSS
VL: DIQMTQSPSSLSASVGDRVTITCRASQSIRNVLGWFQQKPGKAPQRLIYAASSLQSGVPSRFSGSGSGTEFTLTISSLQPEDFATYYCLQHNFYPLTFGGGTKVEIKR
notes: hIgG1/kappa
B10: 12795B anti-hTfR monoclonal antibody (bivalent IgG1) (antibody, V domains shown)
VH: EVQLVESGGGLVQPGGSLRLSCATSGFTFTSYDMKWVRQAPGLGLEWVSAISGSGGNTYYADSVKGRFTISRDNSRNTLYLQMNSLRAEDTAVYYCTRSHDFGAFDYFDYWGQGTLVTVSS
VL: B9 VL with S28G, N31D, V32H, L33F, F36Y, Q45K, Q55H, H91Y, N92D, F93T
notes: hIgG1/kappa
B11: 69323 anti-hTfR monoclonal antibody (bivalent IgG1) (antibody, V domains shown)
VH: EVQLVESGGGLVQPGRSLRLSCAASGFTFDDYAMHWVRQAPGKGLEWVSGISWNSGYIGYADSVKGRFTISRDNAENSLHLQMNSLRAEDTALYYCARGGSTLVRGVKGGYYGMDVWGQGTTVTVSS
VL: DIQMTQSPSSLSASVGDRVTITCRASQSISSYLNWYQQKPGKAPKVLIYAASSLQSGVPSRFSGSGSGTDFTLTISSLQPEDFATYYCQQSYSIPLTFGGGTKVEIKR
notes: hIgG1/kappa
B12: 12799B anti-hTfR monoclonal antibody (bivalent IgG1) (antibody, V domains shown)
VH: QITLKESGPTLVKPTQTLTLTCTFSGFSLSTSGVGVVWIRQPPGKALEWLALIYWNDHKRYSPSLGSRLTITKDTSKNQVVLTMTNMDPVDTATYYCAHYSGSYSYYYYGLDVWGQGTTVTVSS
VL: DIQMTQSPSSVSASVGDRVTITCRASQGIASWLAWYQQKPGKAPELLIYAASSLQGGVPSRFSGSGSGTDFTLTISSLQPEDFAIYYCQQANYFPWTFGQGTKVEIKR
notes: hIgG1/kappa; also called H1H12799B; REGN17508
B13: 12833B anti-hTfR monoclonal antibody (bivalent IgG1) (antibody, V domains shown)
VH: QVQLVESGGGVVQPGRSLRLSCAASGFTFSSFGMHWVRQAPGKGLEWVIFISYDGSDKYYADSVKGRFAISRDSSKNTLYLQMNSLRAEDTAVYYCAKENGILTDSYGMDVWGQGTTVTVSS
VL: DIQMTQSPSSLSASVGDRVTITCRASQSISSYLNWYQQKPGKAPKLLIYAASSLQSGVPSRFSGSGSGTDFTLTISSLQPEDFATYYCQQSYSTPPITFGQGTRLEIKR
notes: hIgG1/kappa
B14: 12850B anti-hTfR monoclonal antibody (bivalent IgG1) (antibody, V domains shown)
VH: QVQLVQSGAEVKKPGSSVKVSCKASGGTFNTYAITWVRQAPGQGLEWMGGIIPISGIAEYAQKFQGRVTITTDDSSTTAYMELNSLRSEDTAVYYCASWNYALYYFYGMDVWGRGTTVTVSS
VL: not shown
notes: hIgG1/kappa; also called H1H12850B; REGN17516
B15: 12834B anti-hTfR monoclonal antibody (bivalent IgG1) (antibody, V domains shown)
VH: QVQLVQSGAEVKKPGASVKVSCKASGYTFTSYGISWVRQAPGQGLEWMGWISVYHGNTNYAQKFQGRVTMTTDTSTSTAYMELRSLRSDDTAVYYCAREGYYDFWSGYYPFDYWGQGTLVTVSS
VL: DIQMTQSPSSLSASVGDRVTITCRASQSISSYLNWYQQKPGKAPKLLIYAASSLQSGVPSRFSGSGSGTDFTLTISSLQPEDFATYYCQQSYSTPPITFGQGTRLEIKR
notes: hIgG1/kappa
B16: 12845B anti-hTfR monoclonal antibody (bivalent IgG1) (antibody, V domains shown)
VH: EVQLVESGGGLVQPGGSLRLSCAASGFTVSNYEMNWVRQAPGKGLEWVSYISSSTSNIYYADSVKGRFTISRDNAENSLYLQMNSLRVEDTAVYYCVRDGIVVVPVGRGYYYYGLDVWGQGTTVTVSS
VL: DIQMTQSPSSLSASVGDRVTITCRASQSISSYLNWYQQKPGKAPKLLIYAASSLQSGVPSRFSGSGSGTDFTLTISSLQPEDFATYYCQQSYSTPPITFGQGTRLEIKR
notes: hIgG1/kappa; also called H1H12845B; REGN17513
B17: 69307 anti-hTfR monoclonal antibody (bivalent IgG1) (antibody, V domains shown)
VH: EVQLVESGGGLVQPGGSLRLSCTASGFTFSNYWMTWVRQAPGKGLEWVANIKEDGSEKEYVDSVKGRFTISRDNAKNSLYLQMNSLRGEDTAVYYCARDGEQLVDYYYYYVMDVWGQGTTVTVSS
VL: DIQMTQSPSSVSASVGDRVTITCRASQGISSWLAWYQQKPGKAPKLLIYAASSLQSGVPSRFSGSGSGTDFTLTISSLQPEDFATYYCQKADSLPYAFGQGTKLEIKR
notes: hIgG1/kappa
B18: 12812B anti-hTfR monoclonal antibody (bivalent IgG1) (antibody, V domains shown)
VH: QVQLVQSGAEVKKPGSSVRVSCKASRGTFSSYAISWVRQAPGQGLEWMGGIIPIFGTANYAQKFLARVTITADESTSTAYMELSSLRSEDTAVYYCAREKGWNYFDYWGQGTLVTVSS
VL: B12 VL with S9P, A30S, E45K, G56S, I85T, Y93S, W96R
notes: hIgG1/kappa; also called H1H12812B; REGN17708
B19: 69329 anti-hTfR monoclonal antibody (bivalent IgG1) (antibody, V domains shown)
VH: B17 VH with T23A, E59D
VL: B17 VL with D92N, L94F, A97T
notes: hIgG1/kappa
B20: 69326 anti-hTfR monoclonal antibody (bivalent IgG1) (antibody, V domains shown)
VH: EVQLVESGGGLVQPGGSLRLSCAVSGFIFSSYEMNWVRQAPGKGLEWVSYISSSGSTIFYADSVKGRFTISRDNAKNSLYLQMNSLRAEDTAVYYCVSGVVLFDVWGQGTMVTVSS
VL: EIVMTQSPATLSVSPGERATLSCRASQSVSSNFAWYQQKPGQAPRLLIYSASSRATGIPVRFSGSGSGTEFTLTISSLQSEDFAVYYCQQYNIWPRTFGQGTKVEIKR
notes: hIgG1/kappa
B21: 12841B anti-hTfR monoclonal antibody (bivalent IgG1) (antibody, V domains shown)
VH: EVQLVESGGGLVQPGGSLRLSCAASGFTFSNYWMNWVRQAPGKGLEWVANIKEDGGKKLYVDSVKGRFTISRDNAKNSLFLQMNSLRAEDTAVYYCAREDTTLVVDYYYYGMDVWGQGTTVTVSS
VL: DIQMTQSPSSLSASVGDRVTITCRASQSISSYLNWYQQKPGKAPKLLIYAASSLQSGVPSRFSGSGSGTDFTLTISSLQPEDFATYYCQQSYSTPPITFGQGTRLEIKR
notes: hIgG1/kappa; also called H1H12841B; REGN17511
B22: 12839B anti-hTfR monoclonal antibody (bivalent IgG1) (antibody, V domains shown)
VH: QVQLVESGGGVVQPGRSLRLSCAASGFPFSNYVMYWVRQAPGKGLEWVALIFFDGKKNYHADSVKGRFTITRDNSKNMLYLQMNSLRPEDAAVYYCAKIHCPNGVCYKGYYGMDVWGQGTTVTVSS
VL: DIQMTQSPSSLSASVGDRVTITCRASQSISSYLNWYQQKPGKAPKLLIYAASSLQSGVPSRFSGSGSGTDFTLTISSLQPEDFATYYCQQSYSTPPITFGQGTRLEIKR
notes: hIgG1/kappa; also called H1H12839B; REGN17510

Residue numbers refer to the chain shown, from its start.

For one assay, the target named is T1, REGN2054 (mf TFRC ecto-mmh): monomeric monkey (cyno) Tfrc ectodomain (C89-F760) with C-terminal … (monkey (cyno, Macaca fascicularis), UniProt H9EXL1 89-760).
T1 construct: range 89-760; also called mfTFR-mmh; mfTfR-mmh
T1 sequence (chain, as listed by the source): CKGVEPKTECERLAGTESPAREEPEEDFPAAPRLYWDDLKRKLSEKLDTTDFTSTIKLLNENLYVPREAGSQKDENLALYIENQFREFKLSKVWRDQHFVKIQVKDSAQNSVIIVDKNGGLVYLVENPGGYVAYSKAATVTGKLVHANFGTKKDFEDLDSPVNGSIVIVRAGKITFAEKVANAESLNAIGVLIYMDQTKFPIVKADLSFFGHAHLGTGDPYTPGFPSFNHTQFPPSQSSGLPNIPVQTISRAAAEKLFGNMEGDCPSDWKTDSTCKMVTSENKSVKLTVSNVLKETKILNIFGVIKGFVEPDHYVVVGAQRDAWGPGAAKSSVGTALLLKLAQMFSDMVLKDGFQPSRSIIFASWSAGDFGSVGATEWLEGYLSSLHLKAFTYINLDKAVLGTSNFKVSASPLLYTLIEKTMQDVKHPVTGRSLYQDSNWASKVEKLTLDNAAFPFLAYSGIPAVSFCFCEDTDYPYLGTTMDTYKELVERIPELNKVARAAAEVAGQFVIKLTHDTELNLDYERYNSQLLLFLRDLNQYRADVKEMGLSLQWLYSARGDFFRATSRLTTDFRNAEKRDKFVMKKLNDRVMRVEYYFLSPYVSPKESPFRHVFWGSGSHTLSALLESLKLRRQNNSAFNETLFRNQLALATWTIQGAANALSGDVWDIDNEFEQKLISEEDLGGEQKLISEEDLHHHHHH
Description: SPR Biacore, IgG captured by anti-hFc, 25 C. How it is done:
(§1) Biacore binding kinetics assays were conducted for the interaction of 32 anti-human TfR IgG1 monoclonal antibodies from CHO supernatants with TfR reagents at 25° C.
(§2) Equilibrium dissociation constants (KD) for the interaction of anti-TfR monoclonal antibodies with human and fascicularis monkey TfR ecto domain recombinant proteins were determined using a real-time surface plasmon resonance (SPR) based Biacore S200 biosensor. All binding studies were performed in 10 mM HEPES, 150 mM NaCl, 3 mM EDTA, and 0.05% v/v surfactant Tween-20, pH 7.4 (HBS-EP) running buffer at […]. The Biacore CM5 sensor surface was first derivatized by amine coupling with a monoclonal mouse anti-human Fc antibody (REGN2567) followed by a step to capture anti-TfR monoclonal antibodies in CHO conditioned media. […] The dissociation of TfR bound to anti-TfR monoclonal antibodies was monitored for 3 minutes in HBS-EP running buffer. At the end of each cycle, the anti-TfR monoclonal antibodies capture surface was regenerated using a 12-see injection of 20 mM H₃PO₄. The association rate (ka) and dissociation rate (kd) were determined by fitting the real-time binding sensorgrams to a 1:1 binding model with mass transport limitation using Scrubber 2.0c software. The dissociation equilibrium constant (KD) and dissociative half-life (t %) were calculated from the kinetic rate constants as: […]
Consider B1, for which the t1/2 was found to be 16 min.
On the same count and under the same terms, for B2 the value was 23.8 min; for B3, 28.7 min; for B4, 9 min.
Same read-out and setting: then B5, with 3.9 min; and B6, with 3.1 min.
Still for that read-out and setting: then B7, with 1.2 min; and B8, with 1.2 min; and B9, with 25.1 min.
Take B10: the t1/2 turned out to be 162 min.
Consider B11, for which the t1/2 was 1.1 min.
Still for that read-out and setting: then B12, with 71.2 min; and B13, with 23.8 min; and B14, with 7.3 min.

The target in another assay is T2, REGN2431 (hmm.hTfRC): monomeric human Tfrc ectodomain (C89-F760) with N-terminal hexahistidine-myc-myc tag (human, UniProt P02786 89-760).
T2 construct: also called hmm.hTfR(C89-F763); hTFR-mmh
T2 sequence (P02786 other isoform, or with tags, fused parts or gaps): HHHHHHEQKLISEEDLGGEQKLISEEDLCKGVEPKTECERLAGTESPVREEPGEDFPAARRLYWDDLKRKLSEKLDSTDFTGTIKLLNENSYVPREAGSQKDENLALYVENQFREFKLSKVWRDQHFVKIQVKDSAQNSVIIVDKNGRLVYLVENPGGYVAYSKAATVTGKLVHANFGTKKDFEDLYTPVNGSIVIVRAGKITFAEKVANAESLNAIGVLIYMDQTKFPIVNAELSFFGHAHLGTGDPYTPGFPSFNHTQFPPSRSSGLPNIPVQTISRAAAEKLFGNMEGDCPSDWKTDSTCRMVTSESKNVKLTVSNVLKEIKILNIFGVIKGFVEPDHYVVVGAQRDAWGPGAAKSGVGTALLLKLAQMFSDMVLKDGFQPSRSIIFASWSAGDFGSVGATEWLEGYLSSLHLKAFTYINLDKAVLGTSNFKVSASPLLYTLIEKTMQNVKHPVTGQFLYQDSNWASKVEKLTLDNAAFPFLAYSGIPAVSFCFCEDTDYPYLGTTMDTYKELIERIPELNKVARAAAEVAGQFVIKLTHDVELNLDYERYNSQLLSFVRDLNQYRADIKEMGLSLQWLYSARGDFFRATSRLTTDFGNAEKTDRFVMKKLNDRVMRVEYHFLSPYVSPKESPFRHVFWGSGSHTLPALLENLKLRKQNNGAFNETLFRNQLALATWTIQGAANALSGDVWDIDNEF
The assay can be described thus: SPR Biacore, IgG captured by anti-hFc, 25 C. As to the method:
as §1, §2
Regarding B1, the t1/2 turned out to be 185 min.
The same measure, in the same setting: for B2 the value was 34.3 min; for B3, 143 min; for B4, 183 min.
Still for that read-out and setting: for B15 the value was 2.6 min; for B5, above 1160 min; for B6, 10 min.
On the same count and under the same terms, for B7 the value was 2.5 min; for B8, 100 min.
In turn, B9 showed a t1/2 of 67.2 min.
B10 came in with a t1/2 above 1160 min.
Still for that read-out and setting: for B16 the value was 57.9 min.
On the same count and under the same terms, for B17 the value was 271 min; for B18, 8.8 min.
With B19, the t1/2 came to 62.2 min.
Still for that read-out and setting: then B20, with 45.1 min.
Same read-out and setting: for B21 the value was 99.8 min.
B22 showed a t1/2 of 217 min.
Molecule B11 had a t1/2 of 64.1 min.
On the same count and under the same terms, then B12, with 174 min.
Same read-out and setting: then B13, with 45.9 min; and B14, with 657 min.
